Results on five molecules are retold here after patent US20240401082A1 (Sanofi, published 2024).

Experiment [1] concerns the target T1, human complement C1s enzyme (activated C1s) (human, UniProt P09871 16-437; P09871 438-688).
T1 sequence 1: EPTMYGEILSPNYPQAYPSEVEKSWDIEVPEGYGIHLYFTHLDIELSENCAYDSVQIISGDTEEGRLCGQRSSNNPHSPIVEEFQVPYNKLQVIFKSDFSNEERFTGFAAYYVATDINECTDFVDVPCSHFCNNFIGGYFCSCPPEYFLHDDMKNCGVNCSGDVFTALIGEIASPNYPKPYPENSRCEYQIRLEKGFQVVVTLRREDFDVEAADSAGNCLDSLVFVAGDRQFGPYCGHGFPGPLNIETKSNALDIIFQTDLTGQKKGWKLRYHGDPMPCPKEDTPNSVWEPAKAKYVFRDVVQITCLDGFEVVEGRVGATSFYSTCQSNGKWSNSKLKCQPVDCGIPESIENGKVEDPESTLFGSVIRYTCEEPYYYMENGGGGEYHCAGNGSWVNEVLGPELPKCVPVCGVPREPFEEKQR
T1 sequence 2: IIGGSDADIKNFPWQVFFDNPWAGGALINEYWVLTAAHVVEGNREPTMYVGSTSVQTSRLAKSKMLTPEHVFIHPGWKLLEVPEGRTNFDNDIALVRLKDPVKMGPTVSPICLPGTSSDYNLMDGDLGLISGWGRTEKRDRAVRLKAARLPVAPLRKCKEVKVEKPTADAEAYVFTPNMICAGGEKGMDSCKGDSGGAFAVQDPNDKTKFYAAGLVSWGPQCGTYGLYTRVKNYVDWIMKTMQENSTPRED
In words: cell-based or functional assay.

In experiment [2] the target is T2, human complement factor Bb (human, UniProt P00751 260-764). Kind of experiment: cell-based or functional assay.
T2 sequence (P00751 260-764): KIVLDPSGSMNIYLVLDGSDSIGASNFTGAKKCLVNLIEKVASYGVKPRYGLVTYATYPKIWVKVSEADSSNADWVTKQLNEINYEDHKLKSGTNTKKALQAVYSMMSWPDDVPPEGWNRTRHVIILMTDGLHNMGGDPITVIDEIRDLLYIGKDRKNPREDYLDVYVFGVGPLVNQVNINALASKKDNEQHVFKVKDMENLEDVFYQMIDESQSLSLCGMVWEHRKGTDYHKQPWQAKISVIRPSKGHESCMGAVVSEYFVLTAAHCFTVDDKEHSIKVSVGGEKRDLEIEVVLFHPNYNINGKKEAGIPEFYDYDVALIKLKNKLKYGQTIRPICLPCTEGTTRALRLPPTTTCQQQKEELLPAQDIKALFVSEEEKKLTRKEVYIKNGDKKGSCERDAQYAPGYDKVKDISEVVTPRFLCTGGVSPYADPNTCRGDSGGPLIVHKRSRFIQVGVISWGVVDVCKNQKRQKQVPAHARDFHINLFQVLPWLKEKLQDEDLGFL
The target in experiment [3] is T1, human complement C1s enzyme (activated …). Kind of experiment: BLI (Octet), biotinylated target on streptavidin sensor. The source says: (§1) Bio-layer interferometry (BLI) was used to assess the recombinant proteins' target engagement to and binding affinity for complement C1s enzyme (active C1s or “C1s” herein) and factor Bb (Bb) (Complement Technology, Tyler, TX, USA). C1s and Bb were biotinylated with EZ-Link™ Sulfo-NHS-LC-LC-Biotin (Thermo Fisher, Waltham, MA, USA) according to manufacturer instructions. Biotinylated C1s or Bb was loaded on Octet® Streptavidin (SA) Biosensors (Sartorius, Göttingen, Germany), followed by a concentration range of purified proteins. To assess dual target engagement, biotinylated active C1s or Bb was loaded onto sensors, followed by purified proteins (“first association phase”), followed by the non-captured complement target (Bb or active C1s, non-biotinylated; “second association phase”). The assays were performed at 30° C. using PBS with 0.1% Tween 20 as a diluent (FIG. 3).
On the technique in general: Biolayer interferometry detects binding as a change in optical thickness at a sensor tip.

For experiment [4], the target named is T2, human complement factor Bb. Described as above.
Excerpt: as §1

B1: construct #13: αC1s scFab-(G4S)2-αBb scFv (bispecific antibody)
chain: DIVLTQSPDSLAVSLGERATISCKASQSVDYDGDSYMNWYQQKPGQPPKILIYDASNLESGIPARFSGSGSGTDFTLTISSLEPEDFAIYYCQQSNEDPWTFGGGTKVEIKRTVAAPSVFIFPPSDEQLKSGTASVVCLLNNFYPREAKVQWKVDNALQSGNSQESVTEQDSKDSTYSLSSTLTLSKADYEKHKVYACEVTHQGLSSPVTKSFNRGECGGGGSGGGGSGGGGSGGGGSGGGGSGGGGSGGGGSQVQLVQSGAEVKKPGASVKLSCTASGFNIKDDYIHWVKQAPGQGLEWIGRIDPADGHTKYAPKFQVKVTITADTSTSTAYLELSSLRSEDTAVYYCARYGYGREVFDYWGQGTTVTVSSASTKGPSVFPLAPCSRSTSESTAALGCLVKDYFPEPVTVSWNSGALTSGVHTFPAVLQSSGLYSLSSVVTVPSSSLGTKTYTCNVDHKPSNTKVDKRVGGGGSGGGGSEVQLVESGGGLVKPGGSLRLSCAASGFTFSNYAMSWVRQAPGKRLEWVATISNRGSYTYYPDSVKGRFTISRDNAKNSLYLQMNSLRAEDTALYYCARERPMDYWGQGTLVTVSSGGGGSGGGGSGGGGSDIQMTQSPSTLSASVGDRVTITCKASQDVGTAVAWYQQKPGKAPKLLIYWASTRHTGVPDRFSGSGSGTDFTLTISSLQAEDFAVYFCHQHSSNPLTFGQGTKLEIK
notes: Residues 1-20 were left out as the signal peptide, which is marked by boldface only
In general, Kd refers to the free concentration of one partner at which half of the binding sites on the other are occupied at equilibrium, for simple one-to-one binding. By koff is commonly meant a measure of how fast the partners let go of each other. Read a low koff as slow dissociation. The term kon denotes a measure of how fast the partners come together. Turning to B1, the “IC50 CP (Wieslab)” value in experiment [1] stood at 44.4 nM. Also, the “IC50 AP (Wieslab)” value in experiment [2] was 201 nM. In experiment [3], binding was characterised by a dissociation constant (Kd) of 1 nM, the koff was 0.00029 s⁻¹ and the kon stood at 300000 M⁻¹ s⁻¹. In experiment [4], this molecule returned a Kd of 3 nM, a koff of 0.00022 s⁻¹ and an on-rate constant (kon) of 70000 M⁻¹ s⁻¹.

B2: construct #8: αBb scFab-(G4S)3-αC1s scFab (bispecific antibody)
chain: DIQMTQSPSTLSASVGDRVTITCKASQDVGTAVAWYQQKPGKAPKLLIYWASTRHTGVPDRFSGSGSGTDFTLTISSLQAEDFAVYFCHQHSSNPLTFGQGTKLEIKRTVAAPSVFIFPPSDEQLKSGTASVVCLLNNFYPREAKVQWKVDNALQSGNSQESVTEQDSKDSTYSLSSTLTLSKADYEKHKVYACEVTHQGLSSPVTKSFNRGECGGGGSGGGGSGGGGSGGGGSGGGGSGGGGSGGGGSEVQLVESGGGLVKPGGSLRLSCAASGFTFSNYAMSWVRQAPGKRLEWVATISNRGSYTYYPDSVKGRFTISRDNAKNSLYLQMNSLRAEDTALYYCARERPMDYWGQGTLVTVSSASTKGPSVFPLAPCSRSTSESTAALGCLVKDYFPEPVTVSWNSGALTSGVHTFPAVLQSSGLYSLSSVVTVPSSSLGTKTYTCNVDHKPSNTKVDKRVGGGGGSGGGGSGGGGSDIVLTQSPDSLAVSLGERATISCKASQSVDYDGDSYMNWYQQKPGQPPKILIYDASNLESGIPARFSGSGSGTDFTLTISSLEPEDFAIYYCQQSNEDPWTFGGGTKVEIKRTVAAPSVFIFPPSDEQLKSGTASVVCLLNNFYPREAKVQWKVDNALQSGNSQESVTEQDSKDSTYSLSSTLTLSKADYEKHKVYACEVTHQGLSSPVTKSFNRGECGGGGSGGGGSGGGGSGGGGSGGGGSGGGGSGGGGSQVQLVQSGAEVKKPGASVKLSCTASGFNIKDDYIHWVKQAPGQGLEWIGRIDPADGHTKYAPKFQVKVTITADTSTSTAYLELSSLRSEDTAVYYCARYGYGREVFDYWGQGTTVTVSSASTKGPSVFPLAPCSRSTSESTAALGCLVKDYFPEPVTVSWNSGALTSGVHTFPAVLQSSGLYSLSSVVTVPSSSLGTKTYTCNVDHKPSNTKVDKRV
notes: Signal peptide marked by boldface only
In the case of B2, the “IC50 CP (Wieslab)” value in experiment [1] stood at 87.7 nM. Further, the “IC50 AP (Wieslab)” value in experiment [2] turned out to be 420 nM. In experiment [3], this molecule gave a Kd of 2.1 nM, a koff of 0.00063 s⁻¹ and a kon of 300000 M⁻¹ s⁻¹. Besides, in experiment [4], binding was put at a Kd of 1.8 nM, the koff turned out to be 0.00021 s⁻¹ and the kon came out at 120000 M⁻¹ s⁻¹.

B3: construct #5: αC1s scFv-(G4S)2-αBb scFv (bispecific antibody)
chain: QVQLVQSGAEVKKPGASVKLSCTASGFNIKDDYIHWVKQAPGQGLEWIGRIDPADGHTKYAPKFQVKVTITADTSTSTAYLELSSLRSEDTAVYYCARYGYGREVFDYWGQGTTVTVSSGGGGSGGGGSGGGGSDIVLTQSPDSLAVSLGERATISCKASQSVDYDGDSYMNWYQQKPGQPPKILIYDASNLESGIPARFSGSGSGTDFTLTISSLEPEDFAIYYCQQSNEDPWTFGGGTKVEIKGGGGSGGGGSEVQLVESGGGLVKPGGSLRLSCAASGFTFSNYAMSWVRQAPGKRLEWVATISNRGSYTYYPDSVKGRFTISRDNAKNSLYLQMNSLRAEDTALYYCARERPMDYWGQGTLVTVSSGGGGSGGGGSGGGGSDIQMTQSPSTLSASVGDRVTITCKASQDVGTAVAWYQQKPGKAPKLLIYWASTRHTGVPDRFSGSGSGTDFTLTISSLQAEDFAVYFCHQHSSNPLTFGQGTKLEIK
As for B3, the “IC50 CP (Wieslab)” value in experiment [1] is 216 nM. The “IC50 AP (Wieslab); curve not saturated, estimated” value in experiment [2] is ~2830 nM.

B4: construct #19: αC1s scFab-(G4S)3-αBb F2A Fab (bispecific antibody)
chain: DIVLTQSPDSLAVSLGERATISCKASQSVDYDGDSYMNWYQQKPGQPPKILIYDASNLESGIPARFSGSGSGTDFTLTISSLEPEDFAIYYCQQSNEDPWTFGGGTKVEIKRTVAAPSVFIFPPSDEQLKSGTASVVCLLNNFYPREAKVQWKVDNALQSGNSQESVTEQDSKDSTYSLSSTLTLSKADYEKHKVYACEVTHQGLSSPVTKSFNRGECGGGGSGGGGSGGGGSGGGGSGGGGSGGGGSGGGGSQVQLVQSGAEVKKPGASVKLSCTASGFNIKDDYIHWVKQAPGQGLEWIGRIDPADGHTKYAPKFQVKVTITADTSTSTAYLELSSLRSEDTAVYYCARYGYGREVFDYWGQGTTVTVSSASTKGPSVFPLAPCSRSTSESTAALGCLVKDYFPEPVTVSWNSGALTSGVHTFPAVLQSSGLYSLSSVVTVPSSSLGTKTYTCNVDHKPSNTKVDKRVGGGGSGGGGSGGGGSEVQLVESGGGLVKPGGSLRLSCAASGFTFSNYAMSWVRQAPGKRLEWVATISNRGSYTYYPDSVKGRFTISRDNAKNSLYLQMNSLRAEDTALYYCARERPMDYWGQGTLVTVSSASTKGPSVFPLAPCSRSTSESTAALGCLVKDYFPEPVTVSWNSGALTSGVHTFPAVLQSSGLYSLSSVVTVPSSSLGTKTYTCNVDHKPSNTKVDKRV
light: DIQMTQSPSTLSASVGDRVTITCKASQDVGTAVAWYQQKPGKAPKLLIYWASTRHTGVPDRFSGSGSGTDFTLTISSLQAEDFAVYFCHQHSSNPLTFGQGTKLEIKRTVAAPSVFIFPPSDEQLKSGTASVVCLLNNFYPREAKVQWKVDNALQSGNSQESVTEQDSKDSTYSLSSTLTLSKADYEKHKVYACEVTHQGLSSPVTKSFNRGEC
B4: the “IC50 CP (Wieslab)” value in experiment [1] was found to be 34 nM. For the same molecule, the “IC50 AP (Wieslab); curve not saturated, estimated” value in experiment [2] was ~2090 nM.

B5: construct #6: αBb scFv-(G4S)2-αC1s scFv (bispecific antibody)
chain: EVQLVESGGGLVKPGGSLRLSCAASGFTFSNYAMSWVRQAPGKRLEWVATISNRGSYTYYPDSVKGRFTISRDNAKNSLYLQMNSLRAEDTALYYCARERPMDYWGQGTLVTVSSGGGGSGGGGSGGGGSDIQMTQSPSTLSASVGDRVTITCKASQDVGTAVAWYQQKPGKAPKLLIYWASTRHTGVPDRFSGSGSGTDFTLTISSLQAEDFAVYFCHQHSSNPLTFGQGTKLEIKGGGGSGGGGSQVQLVQSGAEVKKPGASVKLSCTASGFNIKDDYIHWVKQAPGQGLEWIGRIDPADGHTKYAPKFQVKVTITADTSTSTAYLELSSLRSEDTAVYYCARYGYGREVFDYWGQGTTVTVSSGGGGSGGGGSGGGGSDIVLTQSPDSLAVSLGERATISCKASQSVDYDGDSYMNWYQQKPGQPPKILIYDASNLESGIPARFSGSGSGTDFTLTISSLEPEDFAIYYCQQSNEDPWTFGGGTKVEIK
For the molecule B5, in experiment [1], the “IC50 CP (Wieslab)” value came out at 118 nM. Moreover, in experiment [2], the “IC50 AP (Wieslab); curve not saturated, estimated” value is ~1260 nM.
